Substrate in the data set: O=C(O)c1ccccc1O
The data set can be described thus: Mtn/XOD/HRP-coupled Amplex Red fluorescence, initial rates, non-linear regression. The format is biochemical, Clarkia breweri. The settings on record: 0.5 mM SAM, 5 mM MgCl2, 1 mM KCl, pH 7.5, 30°C, coupling enzymes possibly rate-limiting.

B1: SA MTase (salicylic acid methyltransferase) (Clarkia breweri) (protein)
chain: MDVRQVLHMKGGAGENSYAMNSFIQRQVISITKPITEAAITALYSGDTVTTRLAIADLGCSSGPNALFAVTELIKTVEELRKKMGRENSPEYQIFLNDLPGNDFNAIFRSLPIENDVDGVCFINGVPGSFYGRLFPRNTLHFIHSSYSLMWLSQVPIGIESNKGNIYMANTCPQSVLNAYYKQFQEDHALFLRCRAQEVVPGGRMVLTILGRRSEDRASTECCLIWQLLAMALNQMVSEGLIEEEKMDKFNIPQYTPSPTEVEAEILKEGSFLIDHIEASEIYWSSCTKDGDGGGSVEEEGYNVARCMRAVAEPLLLDHFGEAIIEDVFHRYKLLIIERMSKEKTKFINVIVSLIRKSD
Turning to B1, the Km is recorded as 6.8 (±1.0) μM and the kcat is listed as 0.98 (±0.3) min^-1.

The record behind these values is article PMC6200863, “Hydrogen Peroxide-Based Fluorometric Assay for Real-Time Monitoring of SAM-Dependent Methyltransferases” (Frontiers in Bioengineering and Biotechnology, 2018).
